Data reported in US20150007357A1, “Use Of Humanized Mice To Determine Toxicity” (Massachusetts Institute Of Technology, priority 2011, published 2015).
Entries after “also recorded” stand apart in the source; their conditions may differ.

Tests used:
[1] = system: human T, B, NK cells and monocytes in cytokine-treated humanized mice; assay: Immunophenotyping of human cell lineages in peripheral blood (flow cytometry) of cytokine-treated humanized mice; assay type: in vivo, mouse
Procedure: (§1) The blood sampling at seven days post-cytokines treatment was used as the time point (−48 hours) for setting the baseline of the production levels of different cytokines and human cells absolute numbers and percentages. […] Blood samples were collected 2 and 24 hours after the mAb treatment, and all injected animals were euthanized at 24 hours.
(§2) Single cell suspensions were prepared from spleen by standard procedures. The following human conjugated antibodies were used for flow cytometry staining. […] Cells were stained with appropriate antibodies in 100 μl PBS containing 0.2% BSA and 0.05% sodium azide for 30 min on ice. Flow cytometry was performed on a LSRII flow cytometer using the FACSDiva software (BD, Franklin Lakes, N.J.), and samples were analyzed using the Flowjo software. For cytokine detection, the concentration of human IL-2, IL-6, IL-8, IL-1β, TNF-α, IFN-γ and mouse IL-2, IL-6, IL-8 were determined in sera using a BD Cytometric Bead Array (CBA) (BD Biosciences, USA). The experiments were conducted according to the manufacturer's recommendation and results were analyzed with the FCAP array software (Soft Flow Hungary, BD Biosciences).

PBMCs = details: incubated in aqueous phase; previous study; cited from earlier work
[2] = system: cytokine-treated humanized mice (NSG engrafted with human HSCs, human IL-15 and Flt-3L plasmids); assay: Serum human cytokine release after mAb injection in IL-15/Flt-3L cytokine-treated humanized mice; assay type: in vivo, mouse; details: for change in serum levels of human cytokines: vs saline control or baseline; for serum levels of human cytokines at 24 hours: 24 hours post-injection
Procedure: NSG mice were purchased from the Jackson Laboratories and maintained under specific pathogen-free conditions in the animal facilities at Nanyang Technological University and National University of Singapore. To reconstitute mice, newborn pups (less than 48 hours old) were irradiated with 100 cGy using a Gamma radiation source and injected intracardially with CD34+CD133+ cells ([…] cells/recipient). Human IL-15 and human Fltr-3 ligand were cloned separately into pcDNA3.1(+) vector (Invitrogen, USA) as described previously (Chen Q et al. (2009) Proc Natl Acad Sci, USA, 106:21783-21788). For hydrodynamic gene delivery, 12 week-old humice were injected with 50 μg of each plasmid in a total of 2 ml saline within 7 seconds using a 27 gauge needle. All research with human samples and mice was performed in compliance with the institutional guidelines.
as §1
as §2, with “procedures.” for “procedures. The following human conjugated antibodies were used for flow cytometry staining.”, “IL-2, IL-4,” for “IL-2,”, “TNF-α, and” for “TNF-α,”, “IFN-γ” for “IFN-γ and mouse IL-2, IL-6, IL-8”
NSG mice were purchased from the Jackson Laboratories and maintained under specific pathogen-free conditions in the animal facilities at Nanyang Technological University and National University of Singapore. To reconstitute mice, newborn pups (less than 48 hours old) were irradiated with 100 cGy using a Gamma radiation source and injected intracardially with CD34+CD133+ cells (1×10^5 cells/recipient). Human IL-15 and human Fltr-3 ligand were cloned separately into pcDNA3.1(+) vector (Invitrogen, USA) as described previously. For hydrodynamic gene delivery, 12 week-old humice were injected with 50 μg of each plasmid in a total of 2 ml saline within 7 seconds using a 27 gauge needle. All research with human samples and mice was performed in compliance with the institutional guidelines.
as §2

[3] = system: cytokine-treated humanized mice; assay: Serum mouse cytokines (mIL-2, mIFN-γ, mIL-6) in cytokine-treated humanized mice; assay type: in vivo; details: mice treated with IL-15 and FLT3L or M-CSF plasmid
Procedure: (§3) Single cell suspensions were prepared from spleen by standard procedures. The following human conjugated antibodies were used for flow cytometry staining. CD3, CD4, CD8, CD19, CD28, CD45, CD45RO, CCR7 from Biolegend; CD14 and CD56 from BD Biosciences (BD Biosciences, USA) and mouse CD45.1 from eBioscience. Cells were stained with appropriate antibodies in 100 μl PBS containing 0.2% BSA and 0.05% sodium azide for 30 min on ice. Flow cytometry was performed on a LSRII flow cytometer using the FACSDiva software (BD, Franklin Lakes, N.J.), and samples were analyzed using the Flowjo software. For cytokine detection, the concentration of human IL-2, IL-6, IL-8, IL-1β, TNF-α, IFN-γ and mouse IL-2, IL-6, IL-8 were determined in sera using a BD Cytometric Bead Array (CBA) (BD Biosciences, USA). The experiments were conducted according to the manufacturer's recommendation and results were analyzed with the FCAP array software (Soft Flow Hungary, BD Biosciences).

[4] = system: cytokine-treated humanized mice; assay: Liver enzymes (AST, ALT) in cytokine-treated humanized mice; assay type: in vivo, mouse; details: 24 hours post-treatment
Procedure: as §1

[5] = system: humanized mice treated with M-CSF human cytokine plasmid; assay: Serum human cytokine release in humanized mice treated with human M-CSF plasmid; assay type: in vivo, mouse; details: 2 hours post-injection
Procedure: as §1
as §3, with “Biosciences). […]” for “Biosciences).”

[6] = 2 and 24 hrs post-injection, 1 mg/kg
[7] = 2 hours post-injection, 1 mg/kg i.v.
[8] = IL-15 and Flt-3L treated mice, 2 hours post-injection, 1 mg/kg i.v.

| Substance | B cell numbers in peripheral blood [1, 6] | NK cell numbers in peripheral blood [1, 6] | T cell numbers in peripheral blood [1, 6] | monocyte numbers in peripheral blood [1, 6] | IL-2 response of PBMCs (PBMCs) [pg/mL] | IL-6 response of PBMCs (PBMCs) [pg/mL] | IL-8 response of PBMCs (PBMCs) [pg/mL] | change in serum levels of human cytokines [2, 7] | serum levels of human cytokines at 24 hours ([2]; 1 mg/kg i.v.) | serum levels of human IL-2 ([2]; IL-15 and Flt-3L treated mice, 2 hours post-injection, 1 mg/kg) [ng/mL] | serum levels of human IL-6 [2, 8] [ng/mL] | serum levels of human IL-8 [2, 8] [ng/mL] | mouse IL-6 (mIL-6) in sera [3] | Aspartate aminotransferase (AST) level [4] | reduction of the CD14+ cells ([1]; 2 hours post-injection) [fold] | mouse mIL-2 and mIFN-γ in sera [3] | serum levels of human IL-6 [5] [ng/mL] | serum levels of human IL-8 [5] [ng/mL] |
| --- | --- | --- | --- | --- | --- | --- | --- | --- | --- | --- | --- | --- | --- | --- | --- | --- | --- | --- |
| Alemtuzumab: humanized anti-CD52 antibody for treating chronic lymphocytic leukemia (Campath, Genzyme) | complete depletion | complete depletion | complete depletion | complete depletion; also recorded: only residual monocytes cell remaining at 24 hrs | 14.0 | 88 | 6050 | increase in the serum levels of IL-2, IL-6, IL-8 and IL-1β | most cytokines, except IL-1β, had returned to the baseline level | 0.0316 | 0.0192 | 0.2241 | increase | did not induce a significatively increase | – | – | – | – |
| OKT3: mouse mAb against human CD3 for suppressing renal allograft rejection (Biolegend) | – | transient decrease | complete depletion | – | – | – | – | significant increase in the circulating levels of IL-2, IL-6, IL-8 and IFN-γ | IL-2 expression was diminished 24-hours post injection, the other cytokines remained elevated | – | 0.1318 | – | increase; also recorded: slightly increase | did not induce a significatively increase | 4 | not | 1.5128 | 0.7226 |
